# Experiment: soluble on expression in E. coli; label from the status in PepcDB or PDB records
row,Sequence,soluble on expression in E. coli
1,MSSDLYANAVLYSEISQRNPELVSKMFNEATRKKLDAFLKDNEAPKLKDIVTDNVFKKRKRIASSSGNEPPVKKMAAKDSSDSDSSDDGAVKKNGVQKPVNVAAKKSATPVQKKAESSSSSDSDAPAKKLTPVKKPAQTPAQKKAASSSDSDSDDEPPKKAPAVTTKVAPKPMAKKQDTSDSDSDSEDSDDGKSKKANPVKVTPVANVLQKVVAKKAASSSSDSSDDEKKPAAKPTPAKPTPKPVVKKAESSSDSSDDEKKPVAKPAPAKATPKPAAKKADSSSDSSDDEAPAKKTPAKAAPKPVAKKAESSSDSSDDEKKPAAKPTPAKATPKPVAKKAESSSDSSDDEKKPVAKPAPAKATPKPVAKKAESSSDSSDDEKKPAAKPTPAKATPKPVAKKAESSSDSSDDEKKPVAKPTSAKATPKPAAKKADSSSDSSDDEAPAKKTPAKAAPKPASKKAESSSDSSDDEKPAAKSTPAKITPKPTAKKVASSSSDSSDDEKKPAAKPTPANATPKPVAKKAESSSDSSDDEKKPVAKPTSAKATPKPAAKKADLSSDFSDDEAPAKKTPAKAAPKPASKKAESSSDSSDDEKPAAKSTPAKTTPKPTAKKAASSSSDSSDDEKKPVAKPTSAKATPKPAAKKADSSSDSSDDEAPAKKTPVKPTPVKIVAKKVDSSSDSSDDEKKPTKATPVKVTPKSVTKKAAASSSDSSDDEKKPVVKQTPNVVPKKEKAASSSDDSSDDEKKPTAKPTPKATPKQSAKKADSSDDSSDDEAPAKKTPAKSTPAKTAVKKEASSSSDDSSDDEKTKKKSATTPAKSTPKTALKKAESSDSSDDDEDLPKPSKAVTPRPQRADSEESAETEESSSRTPALKAKPLATSTEKAVYENRKRKSSPFRRVQMTKDSVSEKFRNNQHDSHFDQWGQRANESLGKVVGKAFRHEKTKKKKGSYGGGPINQSINSIKFSDSDD,soluble
2,SAESWLRLSGAGPAEEAGPEGGLEEPDALDDSLTSLQWLQEFSILNAKAPALPPGGTDPHGYHQVPGSAAPGSPLAADPACLGQPHTPGKPTSSCTSRSAPPGLQAPPPDDVDYATNPHVKPPYSYATLICMAMQASKATKITLSAIYKWITDNFCYFRHADPTWQNSIRHNLSLNKCFIKVPREKDEPGKGGFWRIDPQYAERLLSGAFKKRRLPPVHIHPAFARQAAQEPSAVPRAGPLTVNTEAQQLLREFEEATGEAGWGAGEGRLGHKRKQPLPKRVAKVPRPPSTLLPTPEEQGELEPLKGNFDWEAIFDAGTLGGELGALEALELSPPLSPASHVDVDLTIHGRHIDCPATWGPSVEQAADSLDFDETFLATSFLQHPWDESGSGCLPPEPLFEAGDATLASDLQDWASVGAFL,soluble
3,EIHHRIKNNLQVICSLLSLEAERFSDEKMLETLKESQNRVASMALIHEELYKGDKNDTLDFAAYLRKLTADLFSSYNLGNDNISLKMDL,not soluble
4,MSLSAPLPLCVIGAGCVGMRHVEVARRSPQIRLTAVVEPVETRRRALAESGLVAVATLEEVPRETRAAIVATPTPDHLATGLAALSRGWAVLVEKPTAGTMDDARVLLGAADRAGLPLYVGHHRRCHPFSRAAREALGGIGDLVGLQGLWSLRKHDSYYAEDWRRQAGAGPLMTNLSHEIDLLRFLVGDMVEVSALTSSARRGLVVPDTAALAFRFADGALGSFLISDAGASPWSFEAACAENPAIAVSGQDYIRITGTAGALEFPSLTRWGRSAPGEIEWSKPLARAAGAGFARVDPLLEQINRFAAVLEGAQDDVLCTGTDGNAALEMTLAAALSGKLGRPVRAHEVPGDYSGEGHHHHHH,soluble
5,GGRALRVLVDMDGVLADFEGGFLRKFRARFPDQPFIALEDRRGFWVSEQYGRLRPGLSEKAISIWESKNFFFELEPLPGAVEAVKEMASLQNTDVFICTSPIKMFKYCPYEKYAWVEKYFGPDFLEQIVLTRDKTVVSADLLIDDRPDITGAEPTPSWEHVLFTACHNQHLQLQPPRRRLHSWADDWKAILDSKRPC,soluble
6,MGSDKIHHHHHHMSTIGSDLYNSLGLTTSSKVAKKEDALGQADFLKLMTEQLQHQDPLKPMENSAFLGQLAQFSTVQGIGDLNTKVGNFSDSMNSDQVLKGAALVGHNVLVPSAQVAIDATGSAKGVVAATSAGFVNFEITDANGTFVKQLSVPASAAGEVSFAWDGTDANGNRMAAGKYGITATQTDTAGAKSKLATYVDAPVDSVTIGSDGLYLNLTGLGTSPLANVLRVS,not soluble
7,MTLQEQIMKALHVQPVIDPKAEIRKRVDFLKDYVKKTGAKGFVLGISGGQDSTLAGRLAQLAVEEIRNEGGNATFIAVRLPYKVQKDEDDAQLALQFIQADQSVAFDIASTVDAFSNQYENLLDESLTDFNKGNVKARIRMVTQYAIGGQKGLLVIGTDHAAEAVTGFFTKFGDGGADLLPLTGLTKRQGRALLQELGADERLYLKMPTADLLDEKPGQADETELGITYDQLDDYLEGKTVPADVAEKIEKRYTVSEHKRQVPASMFDDWWKLAAALEHHHHHH,soluble
8,MGSDKIHHHHHHMNQDRNKLLSKIAYLYYIENLNQSQIAAKLGIYRTSISRMLTEARNVGIVKIEIENFDTNMFKLENYVKEKYSLESLEIIPNEFDDTPTILSERISQVAAGVLRNLIDDNMKIGFSWGKSLSNLVDLIHSKSVRNVHFYPLAGGPSHIHAKYHVNTLIYEMSRKFHGECTFMNATIVQENKLLADGILQSRYFENLKNSWKDLDIAVVGIGDFSNKGKHQWLDMLTEDDFKELTKVKTVGEICCRFFDSKGKEVYENLQERTIAISLEDLKNIPQSLAVAYGDTKVSSILSVLRANLVNHLITDKNTILKVLEEDGDLTFREILGE,not soluble
9,MRPDLSRVPGVLGEIARKRASEVAPYPLPEPPSVPSFKEALLRPGLSVIAEVKRQSPSEGLIREVDPVEAALAYARGGARAVSVLTEPHRFGGSLLDLKRVREAVDLPLLRKDFVVDPFMLEEARAFGASAALLIVALLGELTGAYLEEARRLGLEALVEVHTERELEIALEAGAEVLGINNRDLATLHINLETAPRLGRLARKRGFGGVLVAESGYSRKEELKALEGLFDAVLIGTSLMRAPDLEAALRELVG,soluble
10,GSHMASDRKTEFILCVETFNEKAKKGIQMLIEKGFIDSDSNRDIASFLFLNNGRLNKKTIGLLLCDPKKTSLLKEFIDLFDFKGLRVDEAIRILLTKFRLPGESQQIERIVEAFSSKYSADQSNDKVELEDKKAGKNGSESMTEDDIIHVQPDADSVFVLSYSIIMLNTDSHNPQVKDHMTFDDYSNNLRGCYNGKDFPRWYLHKIYTSIKVKEIVMPEEH,soluble
11,MGSDKIHHHHHHMIKRNAAKPVRVAPPMMEEQEVSTSTLQELLEKEETVSNLIFSKGREEGISKSYKSFKNCTFRNQTFSECKFRSSQLADIRFENCDLSNISFAESSLYRVEFIACKLLGTNLSETTMNHVLLHDCNASYINLAMSKMNQVRFSHCHFRNGSFNDCRFSSVAFDSCDLVEADFSHAPLRGIDLRTSRIGGITLNISDLKGAVITSLQAMDLLPLLGVIIED,not soluble
12,MIDKKTYNEIGVHIPSILLPKEGIDMQKWSVVACDQYTSEPEYWEEVEKKVGDNPSTLHLIFPEIYLEHGNADERIKRINNEMKRYINEGILVSQKPCMLLVDRSTPHTKSRKGLILAVDLEKYDYSAGSQTLIRATEGTVIERLPPRVKIRENAILELPHVMLLIDDPDKTVIEPLAGKLDSFEKVYDFELMMNGGHIRGYRIDDGETLKGILKAIEALADPEVFKSKYKVGDDKGVLLFAVGDGNHSLASAKVHWENVKKSLSEAEVEDHPARFALVEVVNVHDDGIVFEPIHRVLFNIEPESVLNALQDFFGSSCCSLEKFDSLESVNKRLSELKREEAVHSFGFVTDRSFGVFTVQNLKHNLEVATLQGFLDYYLGKQKEAKVDYIHGEDVVTKLGSKPGNIGFYLPSMEKHDLFKTVILDGVLPRKTFSMGEAEEKRFYLECRKIVKD,soluble
13,MAMKRREMLSLCGKSVIALGCGGLPAILRAQGRFPSKALTYVVAYTPGSANDILVRILAPELGTQLGQSIIVDNKPGAGGSIGMAAVAQSKADGYTLGLGSTATMAINRALYKNLPYDPLRDFESVVKFASTANVLVVPAGGPAKTLADLKPRDGKPLMFSSPGNGTTQHLAGVLFSSTTKLPTEHVPYRGPAESVMAVASGEVDFSLASLPSALAQIRAGRLRVLGCTSLKPPSSLPQAVSLAEQGLPGFERTEVWFGLVVPSGTPDQARLALEQASVQVLGKQDVREKLEQAGYQPANPQSEGKFDPFVREQVAFWADLVKQAGASIDLEHHHHHH,soluble
14,MTKPAPTPLYNEFTFFLKKYFSYKVQKISLNAGFTCPNRDGTKGLGGCTYCNNQTFNPEYCKTEKSVTRQLEEGKQFFAHKYPDMKYLAYFQAYTNTYAELEGLKGKYEEALSVDGVVGLVIGTRPDCMPDPLLRYLEELNKHTFLLVEYGIETTRDVTLKRINRGHTYADTVETVNRTAACGILTGGHVILGLPGETHDEIIAQAAELSRLPLTTLKMHQLQLIRGTKMAREFECRPEDFHLFSVDEYIDLVIDYVEHLRPDLILERFVSQSPKELLIAPDWGLKNYEFTARVQKRMKERGAYQGKAYLV,not soluble
15,MKKEIKFSLVYRDMWQSSGKYQPRADQLVRIAPLIIEMGCFSRVETNGGAFEQVNLLYGENPNKAVRAFTKPFHEASIQTHMLDRGLNGLRMYPVPADVRRLMYKVKHAQGVDITRIFCGLNEVRNIIPSIHYALEAGMIPQATLCITFSPVHTVEYYTAIAERLIEAGAPEICLKDMAGVGRPEMLGRLTKAIKERHPEIIIQYHGHSGPGLSMASILEVCENGADIIDVAMEPISWGKVHPDVISVQAMLKDAGFQVPEINMKAYMKARAMTQEFIDDFLGYFMDPTNKHMSSLLLKCGLPGGMMGSMMADLKGVHSGINLILRGKNEPELSIDDLLVMLFDEVEYVWPKLGYPPLVTPFSQYVKNVALMNVMSLIKGEERWTMIDNHTWDMILGKSGRLPGALAPEIIALAKEKGYEFTDEDPQKNYPDQLDEYRKEMTENGWDFGQDDEELFELAMHDRQYRDYKSGIAKKRFEDDLQRAKDAALAKQGFSEEEVKRMKRAKAEPVTAMEKGQIIWEIDVESPSMPPEVGHKYDPDDVFCYIATPWHTYDKVLANFSGRVIEVCAKQGALVDKGEPLAYIERCEEPA,not soluble
16,MEEIKPASASCVSKEKPSKVSDLISRFEGGSSLSNYSDLKKESAVNLNAPRTPGRHGLTTTPQQKLLSQHLPQRQGNDADKTQGAQTCVANGVMAAQNQMECEEEKAATLSSDTSIQASEPLLDTHIVNGERDETATAPASPTTDSCDGNASDSSYRTPGIGPVLPLEERGAETETKVQERENGESPLELEQLDQHHEMKETNEQKLHKIANELLLTERAYVNRLDLLDQVFYCKLLEEANRGSFPAEMVNKIFSNISSINAFHSKFLLPELEKRMQEWETTPRIGDILQKLAPFLKMYGEYVKGFDNAMELVKNMTERIPQFKSVVEEIQKQKICGSLTLQHHMLEPVQRIPRYEMLLKDYLRKLPPDSLDWNDAKKSLEIISTAASHSNSAIRKMENLKKLLEIYEMLGEEEDIVNPSNELIKEGQILKLAARNTSAQERYLFLFNNMLLYCVPKFSLVGSKFTVRTRVGIDGMKIVETQNEEYPHTFQVSGKERTLELQASSAQDKEEWIKALQETIDAFHQRHETFRNAIAKDNDIHSEVSTAELGKRAPRWIRDNEVTMCMKCKEPFNALTRRRHHCRACGYVVCWKCSDYKAQLEYDGGKLSKVCKDCYQIISGFTDSEEKKRKGILEIESAEVSGNSVVCSFLQYMEKSKPWQKAWCVIPKQDPLVLYMYGAPQDVRAQATIPLLGYVVDEMPRSADLPHSFKLTQSKSVHSFAADSEELKQKWLKVILLAVTGETPGGPNEHPATLDDHPEPKKKSEC,soluble
17,MLKVLVVDDEMLARDELKYLLERTKEVEIIGEADCVEDALEELMQSRPDIVFLDIQLSDDNGFEIANILKKMKNPPAIVFATAYDQYALQAFEVDALDYILKPFDEERIVQTLKKYKKQKQSQIETKHEIKGTDVTVEMHKLALPIEESIVLVNIEDIVYVGLVDGKVTVKTMRETYVTHDTLVILEKKLPQVSFMRVHRSFIANINHITEIQPWFNSTYNLIMKEGSKVPVSRTYAKELKKLLRI,not soluble
